Test results reported in US7056715B1, “GST sequences from soybean and their use in the production of herbicide resistant plants” (Syngenta Limited, priority 1999, dated 2006).

Key:
[1] = system: transgenic tobacco line T82 3747 (pFT2: soybean GST 3.3 and homoglutathione synthetase); assay: Herbicide tolerance test, transgenic tobacco line T82 3747; format: in vivo, Nicotiana tabacum; details: fomesafen 10 g ai ha^-1 to aerial tissue at approximately 10-leaf stage, visual assessment 5 days post application
Source text: (§1) 6.1 Plants with increased tolerance to the herbicides acifluorfen and fomesafen were obtained by expression in the plant host of both the active soybean GST 3.3 and the homoglutathione synthetase to further increase levels of homoglutathione, required for the enhanced efficiency function of GST 3.3. 6.2 PCR, using oligonucleotide primers hGSH-Nco1 (SEQ ID No. 21) and hGSH-Kpn1 (SEQ ID No.22) was used to introduce a 5′ Nco1 site and 3′ Kpn1 site into the […]. The resulting PCR product was purified, sequenced, digested with Nco1 and Kpn1 and ligated into the vector pMJB2 (FIG. 1). The expression cassette, comprising the double enhanced CaMV35S promoter: Glucanase II leader, hGSH synthetase cDNA and nos terminator was then excised from pMJB2 using […] and ligated into the similarly digested binary vector pMOG800 (FIG. 3). 6.3 Oligonucleotide primers 3.6-Bgl II (SEQ ID No. 23) and 3.6 Nco1 (SEQ ID No.24) were used to introduce Nco1 and Bgl II sites at the 5′ and 3′ end of the GST 3.6 cDNA respectively. The resulting PCR product was purified, sequenced, digested with Nco1 and Bgl II and sub-cloned into the vector pMOG 1051 (FIG. 2). […] Orientation of the insert was determined by PCR. […]

[2] = system: Nicotiana tabacum var. Samsun, WT; assay: Herbicide tolerance test, wild-type tobacco; format: in vivo; details: fomesafen 10 g ai ha^-1 to aerial tissue at approximately 10-leaf stage, visual assessment 5 days post application
Protocol: 7.1 The binary vector pFT2 was transformed into Agrobacterium tumefaciens strain LBA 4404 using the freeze thaw method of transformation provided by Holsters et al., 1978. Tobacco transformation and whole plant regeneration was performed using Nicotiana tabacum var. Samsun according to standard protocols detailed by Bevan, 1984. Transformation events were selected on MS-media containing kanamycin. Other transformation methods may be employed for the transformation of other crops, such as soybean. Examples of such methods are referred to below.
9.1 Following tissue culture, kanamycin-resistant plantlets were transferred to 5 inch pots containing John Innes potting compost no. 3. The plants were allowed to develop to approximately the 10-leaf stage and fomesafen applied at 10 g ai ha^−1, formulated with non-ionic surfactant, to the aerial tissue using a track sprayer. Visual assessment of phytotoxicity/plant necrosis is performed 5 days post application.

[3] = system: transgenic tobacco line T82 3740 (pFT2: soybean GST 3.3 and homoglutathione synthetase); assay: Herbicide tolerance test, transgenic tobacco line T82 3740; format: in vivo, Nicotiana tabacum; details: fomesafen 10 g ai ha^-1 to aerial tissue at approximately 10-leaf stage, visual assessment 5 days post application
Source text: as §1

[4] = biological target: T1, Glycine max (soybean) homoglutathione synthetase, recombinant, C-terminal HIS-tag (pET-MS4-His), SEQ ID No. 1 (Glycine max, UniProt Q9M426); assay: Activity of recombinant homoglutathione synthetase (addition of glycine or β-alanine onto γ-glutamylcysteine; monobromobimane derivatisation); format: biochemical; details: 250 mM Tris-HCl pH 8.0, 50 mM KCl, 20 mM MgCl2, 5 mM DTT, 10 mM ATP, 1 mM γ-glutamylcysteine; 30° C.
T1 sequence (Q9M426 1-499): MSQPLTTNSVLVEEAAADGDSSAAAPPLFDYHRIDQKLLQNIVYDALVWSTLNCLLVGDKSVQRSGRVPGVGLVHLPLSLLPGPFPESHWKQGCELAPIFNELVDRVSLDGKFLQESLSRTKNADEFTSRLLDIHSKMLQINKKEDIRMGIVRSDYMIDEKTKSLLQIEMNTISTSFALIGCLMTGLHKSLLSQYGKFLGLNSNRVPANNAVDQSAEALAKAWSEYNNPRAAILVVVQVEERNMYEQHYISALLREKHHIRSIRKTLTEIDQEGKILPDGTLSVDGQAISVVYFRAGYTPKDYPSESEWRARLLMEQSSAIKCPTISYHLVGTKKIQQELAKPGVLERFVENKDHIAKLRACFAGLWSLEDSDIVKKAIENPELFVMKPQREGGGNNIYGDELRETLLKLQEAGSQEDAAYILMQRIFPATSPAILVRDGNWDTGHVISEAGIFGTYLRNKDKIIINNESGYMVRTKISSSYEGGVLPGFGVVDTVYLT
Protocol: (§2) A 5′ Nco 1 and 3′ Xho 1 restriction enzyme site were introduced into the homoglutathione synthetase cDNA via PCR using primers MS4-Nco (SEQ ID No. 19) and MS-4-HIS (SEQ ID No. 20). Additionally, the use of the MS4-HIS primer provided a C-terminal HIS-tag to assist purification of the enzyme. 5.2 The resulting PCR fragment was digested with Nco1 and Xho 1 and ligated into similarly digested pET-24d. This vector was termed pET-MS4-His. The purification of homoglutathione synthetase was performed using the following method. E. coli BL21 (DE3) harbouring the pET-MS4-His plasmid (section 1.3) were grown at 30° C. until OD600=0.5, after which isopropyl-β-D-thiogalactoside (IPTG) was added to a final concentration of 0.1 mM. Following a 3 hour incubation the bacteria were collected by centrifugation, re-suspended in buffer A (20 mM Tris, 0.5 M NaCl, 5 mM imidazole pH 8.0) and lysed. […] 5.3 The eluted protein was concentrated using a Centriplus 30 (Amicon™) spin column and re-suspended in buffer A prior to application onto a 1 ml HiTrap chelating column (Phamacia™), pre-charged with NiSO4 and equilibrated as described previously. Affinity bound protein was then recovered using an increasing concentration of 20–200 mM imidiazole and the presence of His-tagged recombinant homoglutathione synthetase was detected using His-tagged antibodies according to known procedures. […]

[5] = substrate: NCC(=O)O; assay: purified protein, by the assay type; format: biochemical, Glycine max (soybean); details: other: 250 mM Tris-HCl pH 8.0, 50 mM KCl, 20 mM MgCl2, 5 mM DTT, 10 mM ATP, 1 mM γ-glutamylcysteine, 30° C.
Protocol: as §2

[6] = substrate: NCCC(=O)O; assay: purified protein, by the assay type; details: other: 250 mM Tris-HCl pH 8.0, 50 mM KCl, 20 mM MgCl2, 5 mM DTT, 10 mM ATP, 1 mM γ-glutamylcysteine, 30° C.
[7] = GST activity of purified recombinant protein toward fomesafen; format: biochemical; details: recombinant enzyme, ±SE, n=2
Protocol: (§3) 4.2 Nde I or Nco I sites were introduced as appropriate into the 5′ end cDNAs encoding glutathione S-transferase and Bam H1 at the 3′ end using PCR. The cDNA was then cloned into pET-24a or pET-24d as appropriate. The resulting plasmids were introduced into E. coli BL21 (DE3) using standard bacterial transformation procedures known to the skilled artisan. Expression and purification of the recombinant GST was performed using anion-exchange chromatography and S-Hexyl-glutathione affinity chromatography according to the methods known in the art (for example, Skipsey et al., 1997). GST activity of the purified recombinant protein toward CDNB, acetochlor, acifluorfen, chlorimuron-ethyl, fluorodifen. fomesafen and metolachlor in the presence of both glutathione and homoglutathione was performed via assays which are described in Andrews et al., 1997 and Skipsey et al., 1997.

[8] = GST activity of purified recombinant protein toward metolachlor; format: biochemical; details: recombinant enzyme, ±SE, n=2
Protocol: as §3

[9] = GST activity of purified recombinant protein toward fluorodifen; format: biochemical; details: recombinant enzyme, ±SE, n=2
Protocol: as §3

[10] = GST activity of purified recombinant protein toward CDNB; format: biochemical; details: recombinant enzyme, ±SE, n=2
Protocol: as §3

[11] = GST activity of purified recombinant protein toward acifluorfen; format: biochemical; details: recombinant enzyme, ±SE, n=2
Protocol: as §3

[12] = GST activity of purified recombinant protein toward acetochlor; format: biochemical; details: recombinant enzyme, ±SE, n=2
Protocol: as §3

With CS(=O)(=O)NC(=O)c1cc(Oc2ccc(C(F)(F)F)cc2Cl)ccc1[N+](=O)[O-] [fomesafen] the “% damage” value [1] was 5%, the “% damage” value [2] was 55% and the “% damage” value [3] was 15%.

NCCC(=O)O [β-alanine] showed a Vmax [4] of 42250 ± 3173 pkats/mg hGS.

NCC(=O)O [Glycine] gave a Vmax [4] of 3300 ± 341 pkats/mg hGS.

B1: Glycine max (soybean) homoglutathione synthetase, recombinant, C-terminal HIS-tag (pET-MS4-His), SEQ ID No. 1 (Glycine max) (protein)
chain: MSQPLTTNSVLVEEAAADGDSSAAAPPLFDYHRIDQKLLQNIVYDALVWSTLNCLLVGDKSVQRSGRVPGVGLVHLPLSLLPGPFPESHWKQGCELAPIFNELVDRVSLDGKFLQESLSRTKNADEFTSRLLDIHSKMLQINKKEDIRMGIVRSDYMIDEKTKSLLQIEMNTISTSFALIGCLMTGLHKSLLSQYGKFLGLNSNRVPANNAVDQSAEALAKAWSEYNNPRAAILVVVQVEERNMYEQHYISALLREKHHIRSIRKTLTEIDQEGKILPDGTLSVDGQAISVVYFRAGYTPKDYPSESEWRARLLMEQSSAIKCPTISYHLVGTKKIQQELAKPGVLERFVENKDHIAKLRACFAGLWSLEDSDIVKKAIENPELFVMKPQREGGGNNIYGDELRETLLKLQEAGSQEDAAYILMQRIFPATSPAILVRDGNWDTGHVISEAGIFGTYLRNKDKIIINNESGYMVRTKISSSYEGGVLPGFGVVDTVYLT
B1 gave a Km [5] of 54.9 ± 18.7 mM and a Km [6] of 0.84 ± 0.19 mM.

B2: GST 3.2: Recombinant soybean Glutathione-S-transferase 3.2, SEQ ID No. 9 (protein)
chain: MAEVKLHGFWYSPYTLRVVWTLKLKDIPYQNIEEDRYNKSLQLLEYNPVYKKTPVLVHNGKPLCESMLIVEYIDEIWAHNSLLPADPYERALARFWVKYADDDMFSAVIAFFLSNNDEEREKSIEKIWEHLRVVENQCFGDQKKFFGGDIINIMDIAFGSIFKILVVAEDILDAKVLEDEKFPHLHSWYNNFKDVAVIKENLPDHEKMVAFAKFIREKRLACT
modifications: Glycine max
With B2 the “GST activity toward fomesafen, GSH” value ([7]; thiol GSH) was 21.3 pkat mg-1, the “GST activity toward fomesafen, hGSH” value ([7]; thiol hGSH) was 201.6 pkat mg-1 and the “GST activity toward metolachlor, GSH” value ([8]; thiol GSH) was 253.0 pkat mg-1. The “GST activity toward metolachlor, hGSH” value ([8]; thiol hGSH) was 191.5 pkat mg-1, the “GST activity toward fluorodifen, GSH” value ([9]; thiol GSH) was 78.2 pkat mg-1 and the “GST activity toward fluorodifen, hGSH” value ([9]; thiol hGSH) was 68.0 pkat mg-1. The “GST activity toward CDNB, GSH” value ([10]; thiol GSH) was 24.9 nkat mg-1, the “GST activity toward CDNB, hGSH” value ([10]; thiol hGSH) was 10.3 nkat mg-1 and the “GST activity toward acifluorfen, GSH” value ([11]; thiol GSH) was 7.5 pkat mg-1. The “GST activity toward acifluorfen, hGSH” value ([11]; thiol hGSH) was 23.2 pkat mg-1, the “GST activity toward acetochlor, GSH” value ([12]; thiol GSH) was 418.0 pkat mg-1 and the “GST activity toward acetochlor, hGSH” value ([12]; thiol hGSH) was 143.0 pkat mg-1.
